These results are taken from US7429481.

Where two headings read alike, the source gives them in different places.

Experiment [1] concerns the target human Her2/neu receptor (human) (UniProt P04626).
The target is the same in experiment [2]. The experiment in a line: flow cytometry, SKBR3 cells stained with Herceptin. For orientation: A flow cytometer gives signals particle by particle.

With “Herceptin, the humanized form of 4D5 (antibody)”, the mean fluorescence in experiment [1] amounted to 186; in experiment [2] it was 401.
